In publication PMC7033311, “The Eaf3 chromodomain acts as a pH sensor for gene expression by altering its binding affinity for histone methylated-lysine residues” (Bioscience Reports, 2020):
Substitutions are numbered along the chain they refer to. Where no end group is shown, it is not given here. [ ]: non-standard residue; d: D form. The star is where a group is joined. MTSL = spin label, CC1(C)C=C(CS*)C(C)(C)N1[O]; Lys(Me3) = C[N+](C)(C)CCCC[C@H](N)C(=O)O

T1: Eaf3 chromodomain (Eaf3 CD, residues 1-120), wild type (S. cerevisiae, UniProt Q12432 1-120)
T1 construct: Eaf3 chromodomain (CD), budding yeast (S. cerevisiae), residues 1-120; 15N-labelled for the NMR experiments; expressed from pET15b; also called WT Eaf3 CD; source: E. coli BL21(DE3)pLysS, purified (Ni-NTA, thrombin, Ni-NTA flow-through, Superdex75)
T1 sequence (looked up): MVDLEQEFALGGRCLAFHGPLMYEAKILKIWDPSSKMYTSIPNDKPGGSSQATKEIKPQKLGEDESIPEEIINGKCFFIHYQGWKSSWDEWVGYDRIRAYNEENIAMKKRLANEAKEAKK

T2: Eaf3 CD (residues 1-120) H18D (S. cerevisiae, UniProt Q12432 1-120, H18D)
T2 construct: Eaf3 chromodomain (CD), budding yeast (S. cerevisiae), residues 1-120, H18D; 15N-labelled for the NMR experiments; also called H18D Eaf3 CD; source: E. coli BL21(DE3)pLysS, purified (Ni-NTA, thrombin, Ni-NTA flow-through, Superdex75)
T2 sequence (looked up): T1 sequence (looked up) with H18D

T3: Eaf3 CD (residues 1-120) G19A (S. cerevisiae, UniProt Q12432 1-120, G19A)
T3 construct: Eaf3 chromodomain (CD), budding yeast (S. cerevisiae), residues 1-120, G19A; 15N-labelled for the NMR experiments; source: E. coli BL21(DE3)pLysS, purified (Ni-NTA, thrombin, Ni-NTA flow-through, Superdex75)
T3 sequence (looked up): T1 sequence (looked up) with G19A

T4: Eaf3 CD (residues 1-120) W84Y (S. cerevisiae, UniProt Q12432 1-120, W84Y)
T4 construct: Eaf3 chromodomain (CD), budding yeast (S. cerevisiae), residues 1-120, W84Y; 15N-labelled for the NMR experiments; source: E. coli BL21(DE3)pLysS, purified (Ni-NTA, thrombin, Ni-NTA flow-through, Superdex75)
T4 sequence (looked up): T1 sequence (looked up) with W84Y

T5: Eaf3 CD (residues 1-120) Q82A (S. cerevisiae, UniProt Q12432 1-120, Q82A)
T5 construct: Eaf3 chromodomain (CD), budding yeast (S. cerevisiae), residues 1-120, Q82A; 15N-labelled for the NMR experiments; source: E. coli BL21(DE3)pLysS, purified (Ni-NTA, thrombin, Ni-NTA flow-through, Superdex75)
T5 sequence (looked up): T1 sequence (looked up) with Q82A

B1: MTSL spin-labelled H3K36me3 peptide (residues 32-41) with a Gly33Cys substitution (peptide, UniProt P61830 33-42, looked up)
peptide: TC(MTSL)GVK(me3)KPHRY
notes: histone H3 residues 32-41 with Gly33Cys; also called MTSL-H3K36me3 peptide; paramagnetically labeled H3K36me3 peptide; source: synthetic peptide (SIGMA Genosys), labelled with MTSL
B2: histone H3 peptide H3K4me3, titration peptide (peptide)
chain: ART[Lys(Me3)]QTARKSTGGKAPRY

Assays:
Conditions in all cases: both partners purified
[1] = target: T1, Eaf3 chromodomain (Eaf3 CD, residues …); experiment: paramagnetic relaxation enhancement (NMR); MTSL-H3K36me3 peptide added to 0.3 mM 15N-labelled Eaf3 CD at 1:1; 10 mM potassium phosphate pH 6.8, 20 mM NaCl; paramagnetic against ascorbate-reduced sample
[2] = target: T2, Eaf3 CD (residues 1-120) H18D; experiment: as above
[3] = target: T3, Eaf3 CD (residues 1-120) G19A; experiment: NMR titration; 0.1 mM 15N-labelled WT or mutant Eaf3 CD titrated with unlabelled histone H3 peptide up to 1:88; 10 mM potassium phosphate pH 6.8, 20 mM NaCl, 5 mM DTT, 25°C; Kd by nonlinear fit of chemical shift change
[4] = target: T4, Eaf3 CD (residues 1-120) W84Y; experiment: as above
[5] = target: T5, Eaf3 CD (residues 1-120) Q82A; experiment: as above
[6] = target: T1, Eaf3 chromodomain (Eaf3 CD, residues …); experiment: as above

Binder	binding result [1]	binding result [2]	Kd [3] [µM]	Kd [4] [µM]	Kd [5] [µM]	Kd [6] [µM]
B1	binds	binds	–	–	–	–
B2	–	–	800 ± 70	1590 ± 280	2240 ± 280	2900 ± 10
